The record followed here is the RNAGym collection of RNA variant scans (doi:10.7554/elife.80360).

The labels stand for the following.
B1: Hairpin Ribozyme (parent)
chain: GUCCUCUUUCACGUGCGCGUGAAAGAGAGAAGUGAACCAGAGAAACACACGUUGUGGUAUAUUACCUGGUA

This series covers variants of B1. The series can be described thus: self-cleavage, relative activity (ratio to wild type); higher = more cleavage; co-transcriptional.
For U9A U67G, the self-cleavage was determined as 0.152.
For the variant U8G G19U, the self-cleavage amounted to 0.332.
As to U8G G19A, the self-cleavage turned out to be 0.533.
On to U8G G40U, for which the self-cleavage was 0.132.
The same measure for C10A G32C: 0.0945.
The same measure for C10A G32U: 0.156; for C10G A39C: 0.357.
The same measure for C10G A39G: 0.267.
Take U8G C50G: the self-cleavage was determined as 0.125.
In the case of U8G C50A it was 0.227; in that of U8G G68C, 0.183.
The same measure for C10A U33A: 0.153.
In the case of C10A G57A it was 0.162; in that of C10A A22G, 0.607; in that of C10A A22U, 0.632.
For the variant U9C U62A, the self-cleavage was determined as 0.238.
The same measure for U9G C18U: 0.793; for U9A G15C: 0.727.
In the case of C10G A35U, the self-cleavage was 0.517.
On to U8G G51C, for which the self-cleavage is 0.665.
Consider U8G U52C, for which the self-cleavage came out at 0.617.
In the case of U9G C16A it was 0.668; in that of U9G C16U, 0.857.
In the case of U8G G69C it was 0.323; in that of U8G G69A, 0.282.
The same measure for C10A G42A: 0.149.
For U9A C66G, the self-cleavage stood at 0.0453.
Turning to U9C C16G, the self-cleavage came out at 0.63.
The same measure for U9C C16U: 1.02.
Take C10A G54C: the self-cleavage worked out at 0.355.
Consider U9C A41C, for which the self-cleavage stood at 0.837.
As for U9G C66G, the self-cleavage was found to be 0.172.
Take U9C U53C: the self-cleavage came out at 0.741.
In the case of U9C U53G it was 1.13; in that of C10A G27C, 0.159.
In the case of U9G C46A, the self-cleavage was 0.204.
As to U9G C46G, the self-cleavage was 0.161.
As for U9G C46U, the self-cleavage was 0.0772.
Take U9A G32C: the self-cleavage turned out to be 0.178.
With U9A G32U, the self-cleavage is 0.135.
For the variant U9C G27U, the self-cleavage amounted to 0.246.
As for U9C G27A, the self-cleavage is 0.4.
In the case of U9C G57A it was 0.167; in that of C10G C12A, 0.491.
U9G A41G: the self-cleavage was determined as 0.593.
The same measure for U9C C37A: 0.355; for U9G A26C: 0.418.
The same measure for U9G A26G: 0.386; for U9G A11G: 0.551; for U9G C37A: 0.117.
In the case of U9G C37G, the self-cleavage was 0.229.
Take U9A U60A: the self-cleavage was 0.483.
In the case of U9C A49U it was 0.0445; in that of U9G G13C, 0.528; in that of U9C C12G, 0.502.
The same measure for U9C C12A: 0.789.
In the case of U9A A39G it was 0.201; in that of U8G G57U, 0.19.
For U9A A49G, the self-cleavage turned out to be 0.395.
In the case of U9C G13A it was 0.531.
In the case of U9C G13C it was 0.447; in that of C10A G34A, 0.92; in that of C10A G34U, 1.01.
U9C C46U: the self-cleavage was 0.0512.
Regarding U9C C48A, the self-cleavage was found to be 0.0859.
U9C A35U: the self-cleavage was determined as 0.708.
In the case of U8G U70A it was 0.715; in that of U9C A44C, 0.183; in that of C10A U52G, 0.731.
With C10A A31C, the self-cleavage came to 0.09.
The same measure for U9C A45G: 0.0278.
In the case of U9G U14C it was 0.831; in that of U9A G57C, 0.185.
In the case of U9A G54A it was 0.392; in that of C10A A24C, 0.598.
Turning to U9G G68U, the self-cleavage was found to be 0.189.
Take U9G A30G: the self-cleavage turned out to be 0.0174.
As for U9A U20C, the self-cleavage was determined as 0.773.
In the case of U9G A28G, the self-cleavage came to 1.01.
In the case of U9G A28C it was 0.315; in that of U9C U52A, 0.895; in that of C10G A36U, 0.336.
The same measure for U9C U20G: 0.503.
Take U9G U53G: the self-cleavage amounted to 0.656.
Turning to U9G C48A, the self-cleavage came out at 0.12.
In the case of U9G C48G it was 0.0994; in that of U9G C48U, 0.158; in that of C10A C46G, 0.1.
On to C10A C46U, for which the self-cleavage was found to be 0.2.
In the case of C10A C46A it was 0.109; in that of U9G G34A, 0.8; in that of U9G G34C, 0.833.
Consider C10A G51C, for which the self-cleavage stood at 0.566.
Turning to U9G G15A, the self-cleavage amounted to 0.646.
U9A G13U: the self-cleavage is 0.479.
The same measure for U8G A49C: 0.108; for U9A: 0.691.
As to U9C, the self-cleavage was determined as 0.819.
As for U9G, the self-cleavage turned out to be 0.701.
In the case of C10G A23C it was 0.416; in that of U9G A22U, 0.564.
Regarding U9G A22C, the self-cleavage came out at 0.677.
In the case of U9A U62C it was 0.249; in that of U9G G57C, 0.232.
In the case of U9C U63G, the self-cleavage amounted to 0.169.
In the case of U9C G15A it was 0.76; in that of U9C G15C, 0.977.
The same measure for U9C A11C: 0.592; for U8G G17A: 0.648.
In the case of U9A A71C it was 1.01.
As for U9A G40A, the self-cleavage was 0.262.
As to U9A G40U, the self-cleavage turned out to be 0.119.
In the case of U9A G25U it was 0.285; in that of U8G G27U, 0.289.
In the case of C10A A36U it was 0.43; in that of C10A A36G, 0.856.
In the case of U8G C37A, the self-cleavage amounted to 0.218.
Turning to C10G A11U, the self-cleavage came to 0.358.
Take C10G A11C: the self-cleavage turned out to be 0.799.
In the case of U8G U63A it was 0.245.
C10A U70G: the self-cleavage was 0.767.
Regarding C10A U70C, the self-cleavage is 0.616.
Regarding U8G C65G, the self-cleavage came to 0.275.
In the case of U9A A11G it was 0.473.
Regarding U9A A11U, the self-cleavage was determined as 0.541.
Take U9A A11C: the self-cleavage was 0.478.
In the case of U9A A61C it was 0.144; in that of C10A G17U, 0.681; in that of U9C A24G, 0.844.
In the case of U9C A24C it was 0.657.
In the case of C10A A23G it was 0.6; in that of C10A A23U, 0.666; in that of U9C A47C, 0.149.
Consider U9A G19U, for which the self-cleavage turned out to be 0.558.
The same measure for U9C U70C: 0.492; for U9C A31C: 0.184.
With U9C A31G, the self-cleavage stood at 0.592.
In the case of U9C A31U it was 0.153; in that of U9G C65U, 0.122; in that of U9A G68U, 0.159.
In the case of U9A G68C it was 0.165; in that of C10A C66U, 0.312.
On to C10A C66A, for which the self-cleavage is 0.283.
With C10A C66G, the self-cleavage came out at 0.158.
In the case of C10A G40C, the self-cleavage came to 0.158.
On to C10A U58A, for which the self-cleavage was 0.485.
The same measure for U9C G69A: 0.357; for U9C G69C: 0.136.
Consider U9A G56A, for which the self-cleavage is 0.158.
The same measure for U9C U60C: 0.981; for U8G A59C: 0.136.
As to U8G U58A, the self-cleavage stood at 0.665.
In the case of U8G U58G it was 0.635.
As for U9G G21U, the self-cleavage is 0.674.
Turning to U9G G21C, the self-cleavage came out at 0.736.
Consider U9C A39G, for which the self-cleavage came out at 0.283.
The same measure for U9C A39U: 0.411.
The same measure for U9C A39C: 0.366.
For U8G A71U, the self-cleavage is 0.588.
In the case of U8G A71G it was 0.993; in that of U9C U14G, 0.754.
Consider U9A C18A, for which the self-cleavage stood at 0.855.
Regarding U9A C18G, the self-cleavage is 0.617.
The same measure for C10G A49G: 0.343; for C10G A26U: 0.352.
The same measure for C10G A26C: 0.383.
Regarding C10G A26G, the self-cleavage was found to be 0.776.
